According to IntAct's records for PubMed 25126958:

B1: Cell division control protein 45 (Saccharomyces cerevisiae), Q08032 (parent)
chain: MYYGISQFSEAYNKILRNSSSHSSCQLVIFVSCLNIDALCATKMLSLLFKKQLVQSQIVPIFGYSELRRHYSQLDDNINSLLLVGFGGVIDLEAFLEIDPQEYVIDTDEKSGEQSFRRDIYVLDAHRPWNLDNIFGSQIIQCFDDGTVDDTLGEQKEAYYKLLELDEESGDDELSGDENDNNGGDDEATDADEVTDEDEEDEDETISNKRGNSSIGPNDLSKRKQRKKQIHEYEGVLEEYYSQGTTVVNSISAQIYSLLSAIGETNLSNLWLNILGTTSLDIAYAQVYNRLYPLLQDEVKRLTPSSRNSVKTPDTLTLNIQPDYYLFLLRHSSLYDSFYYSNYVNAKLSLWNENGKKRLHKMFARMGIPLSTAQETWLYMDHSIKRELGIIFDKNLDRYGLQDIIRDGFVRTLGYRGSISASEFVEALTALLEVGNSTDKDSVKINNDNNDDTDGEEEEDNSAQKLTNLRKRWVSNFWLSWDALDDRKVELLNRGIQLAQDLQRAIFNTGVAILEKKLIKHLRIYRLCVLQDGPDLDLYRNPLTLLRLGNWLIECCAESEDKQLLPMVLASIDENTDTYLVAGLTPRYPRGLDTIHTKKPILNNFSMAFQQITAETDAKVRIDNFESSIIEIRREDLSPFLEKLTLSGLL
partner: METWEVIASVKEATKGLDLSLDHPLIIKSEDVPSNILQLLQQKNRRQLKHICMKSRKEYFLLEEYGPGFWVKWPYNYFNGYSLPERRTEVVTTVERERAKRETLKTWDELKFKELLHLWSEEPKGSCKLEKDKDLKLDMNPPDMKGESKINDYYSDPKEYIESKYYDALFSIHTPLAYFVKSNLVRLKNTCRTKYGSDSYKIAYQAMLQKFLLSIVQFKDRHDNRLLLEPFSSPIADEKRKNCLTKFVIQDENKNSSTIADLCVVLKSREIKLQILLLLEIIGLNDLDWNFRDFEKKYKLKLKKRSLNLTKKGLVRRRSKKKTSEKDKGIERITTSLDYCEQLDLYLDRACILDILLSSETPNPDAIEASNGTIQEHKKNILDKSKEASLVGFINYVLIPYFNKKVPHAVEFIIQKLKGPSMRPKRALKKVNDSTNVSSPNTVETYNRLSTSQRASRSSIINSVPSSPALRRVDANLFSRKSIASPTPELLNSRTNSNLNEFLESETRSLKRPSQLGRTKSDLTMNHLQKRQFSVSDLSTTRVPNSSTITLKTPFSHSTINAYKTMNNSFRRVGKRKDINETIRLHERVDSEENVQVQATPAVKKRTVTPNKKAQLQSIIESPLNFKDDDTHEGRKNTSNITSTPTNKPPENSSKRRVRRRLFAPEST

Variants of: B1
Settings: with sld3_yeast SLD3, P53135

Row | effect of a mutation on the interaction | Variant
1 | disrupting interaction strength | D91N;D124N;D149N;D150N
